Target: GST-syntaxin-1 (UniProt P32851)
Assay: pull-down

Chain of GST-syntaxin-1 (P32851 1-265): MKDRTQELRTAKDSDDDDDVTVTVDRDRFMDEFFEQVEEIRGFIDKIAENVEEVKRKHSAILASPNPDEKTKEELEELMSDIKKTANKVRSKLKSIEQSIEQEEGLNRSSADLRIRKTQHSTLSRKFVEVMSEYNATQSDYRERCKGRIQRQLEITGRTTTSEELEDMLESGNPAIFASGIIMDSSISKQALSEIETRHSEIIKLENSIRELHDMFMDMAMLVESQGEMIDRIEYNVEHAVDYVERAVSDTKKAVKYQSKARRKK

| Substance | amount bound in comparison with MBP-tomosyn [%] | Kd [µM] | percent of the total input bound [%] |
| --- | --- | --- | --- |
| MBP-tomosyn-S724D (natural protein) | 35 | – | – |
| MBP-tomosyn (nonphosphorylated form) (natural protein) | – | 0.06 | 60 |
| MBP-tomosyn phosphorylated by PKA (natural protein) | – | 0.33 | 20 |

Source: article PMC2171531
